# Experiment: soluble on expression in E. coli; label from the status in PepcDB or PDB records
row,Sequence,soluble on expression in E. coli
1,MCNTNMSVPTDGAVTTSQIPASEQETLVRPKPLLLKLLKSVGAQKDTYTMKEVLFYLGQYIMTKRLYDEKQQHIVYCSNDLLGDLFGVPSFSVKEHRKIYTMIYRNLVVVNQQESSDSS,soluble
2,GPGSMANGVTANSMRVNVKAPDLGAFPLDHYSECKSQVEAYYRCLKSNEYVTPLCRDQMREYLQCRMDRGLMKPADLDGFGIPKTEFVPTRQHRIDLKQQWLRQKMNQVTVVWEENYRRDDLQVPDGYEREKGGGDGGGGNPKPVGEKVNT,not soluble
3,MKPKFETVELLSPTGEVVELKVVKRGLAQARPEPVDRNKPAWIKAPLPTGPRYQALKAMVRELRLHTVCQEALCPNIGECWTHGTLTVMILGDICTRACKFCAVHTGNPKGLVDPEEPRRVAEAIARMGVRYVVLTSVDRDDLPDGGASHFAATIRAIKERAPGVLVEALTPDFQGDLKAVETVLAANPEVYAQNLETVRRLTPKVRDPRAGYEQTLKVLAHAKKVRPDILTKSSLMLGLGETEEEILEAMRDLRAAGVDILTLGQYLRPTPAHLPVARYVPPEDFKRYEAWGYELGFREVFAGPLVRSSYRADRVFLEATQR,not soluble
4,MGSDKIHHHHHHMIDLKRNSKKIPIEATGLRSRKSSLYEPNQKEDFKISRGRFSNFLTCQRCFYLDRVRGLDPPGTPGWTLNETTDLLLKKEFDYCRQKQIPHRIFASNGLSHVVPFDHPEIDNWRNSLNRGLMHRYKDTGIILTGGVDDIWQDTITEQLIIVDYKSQAKNGRVDKKDYLDDPFHEAYKIQMDFYAYLLSGMGFSVHPTSYFLVCNAKRDEDEFNKTMRFDEYLVPYKWNNDWIESRLDEMVALMNQLEVPESNHSCKNCAYADQYSKIIFSGNTSQKEITQGTLPLF,not soluble
5,MKKFCLSYSSGKDCLLAMDRLVQAGNQPVALVTTLSDEINRSWFHGIPISVLEAAAEALDLPLVISHNNETNYTEKVVEALQETKKLGAETVCFGDIDIEQNGAWDRQVALSAGLEPQLPLWQENREALVKEFLAKGYTAIIKTVSKEAGIPIKFLGEPLNETFITYLKEHQLDICGENGEYHTLVIDGPLFKKRLNYYTSGIYESPYAYSLIIDALEHHHHHH,soluble
6,MAHHHHHHMCAPLYVSPAVQELAQLNSEAERLMLKRAWCVHTKAHLLRELPWAARDVAAYRVALREALQSFTESQQDAFLIDVVYAQFVCAEGGVLRACVQHALFLDLTYDVRLQQWTLVPLHWNIFTTSAGALLLTLQSVLAGPHAQTPCTPPAAPATAARAPLIAHSRAHGTVDSASPLPEASTPASFVRVDPHDREALHRFMRLAFEQEGLSGELHASNRLVCAVVMDTFAIQLQSLQQSFFTGGGLGRLVEMEVRPGTLISFHLSLPELFVPSAPVAHVKMTVAGGTVMLECVRGTDLSTRRVTLPLGTSSLVASGAVGVNTATWKSSMTVVDMEALLWQCVCASAPS,not soluble
7,VPFDPGKIERAIAAAGQATGEFDPQQAQALAERVVERLPERACLDIERVQDLVERVLMEAGHYPTARAYVVYRERHGRLRRERKTLVDVAASMNEYLSREDWRVRANANQGYSLGGLILNVSGKVTANYWLDEVYDADIAAAHRDADLHIHDLDMLAGYCAGWSLRTLLNEGLNGVPGRVEAGPPKHLGSALGQMVNFLGTLQNEWAGAQAFSSFDTYLAPYVRKDRLDYASVRQALQEFIYNLNVPSRWGTQTPFTNLTFDWVCPDDLRDQVPRIGGEEMPFAYGELQAEMDLINRAYIEVMQAGDAHGRVFTFPIPTYNITHDFPWDSDNATRLFEMTARYGLPYFQNFLNSDMQPNQVRSMCCRLQLDVRELLKRGNGLFGSAEQTGSLGVVTINCARLGYRHRGDAAGLYRQLDHLLELAFASLELKRKVIQQHMDAGLYPYTRRYLGTLRNHFSTIGVNGLHEMVRNFSDDREGLHSEAGREMALALLDHVRARLVGFQEDSGHLYNLEATPAEGTTYRFAREDRKRYPRILQAGTPEAPYYTNSSQLPVGFTDDPFEALELQDALQCKYTGGTVLHLYMAERISSAEACKTLVRTALGRFRLPYLTVTPTFSICPRHGYLAGEHEFCPKCDEELLQRSTPKSCCGGC,not soluble
8,MGSDKIHHHHHHMIFLNRYGFPDQSATSRMISSLAMSMAQRGMNVTVVTSREIHNHPGSVLPATETVRGIHIQRLSSGRFGRHNLMRRSIDYLLFQVLAFAWLLRNVRATDTVIVCTDPPLLSVMSSIAIRLKGALMVNWIMDLFPETAIELGFFRKRARWLAPWLTRARNWSLRSPGMVVCPTEKMAEFLFTQGIAKDRVSVLHHWSDGEEIYPVLPEGNSLRKAWGLQDVFVVGYSGNFGRAHDFGTMLAAAKRLEHRPDIRFLLIGGGHQHAAVKTVVQDLGLQNVIFKPLQPVENLAESLSVADVHLVSLLPELEHCIIPSKFYGIMAAGRPTIFIGDPDGEVPRILRAKRCGSNVEIGETDKLTGIIEELCDDPDTTKAMGDAARRLLCTDYSREKAADAWAALIAGLQTVEPSRPHLAQGISP,not soluble
9,MGSDKIHHHHHHMRKLLVIGLDSVPPLLIEKFRDLIPNLQSLLNVKGKLLSGHPPITVPMWGVMLAGRSAGELGVYGFRHRRPGDVGTSYVVTSRSIAEGWVWDDLGLRLGLRSLVIGVPPGYPARRVRGWFVSCFLTPGVDGAFAWPPGLKREILKASGGDYVFDVKYRVEDKESVRKSLWRLAKTQFKVVKYLLSSKPWDFAMYMHIGTDRVHHAFWKYWDPEHPRYPGEGNPYENVLPEYYSLVDKHIGQLLESLPGDTDVIVVSDHGAKAMKGAFAINQWLEEEGYLSLKEEPKRPGADLEASMIDWDRTMAWAWGGYYSRVYINLKGREPRGIVGREEYWSVVEQLKRDIEKIRGPNGERWENKAYHPSELYPEVRGDAPDLMVYLDNLSWRPAGTIGWPSTYLEENDRGPDDAVHDWHGIIGGNADVLKEAVKDSTVPIQRVKEIILAHYGLESHMKDRGRGAV,not soluble
10,KFDGDDPVIPEWTQGGQIIPTMNLKVGDSVYTRVFDQSGENVAYRTELAISNDVLTQAKNWSYALASKINQEQTKLQAGQYSEDKFTPVYGTNPIYLQSNSGLERVEIGYNIETPVPDYSLTVDGLASEYIIGTEPTALDLTLTAEGDLTAELTVYNHHREPLASWTGSIQDGASEQVELTLSKSEPGHHMLVTRIKDTDGNLVDQQTLDFHLKSEEVTPPPSGEYDFVFPEGLSSYTAGTKVLASDGAIYQCKPFPYSGYCVQWSESATQFEPATGSHWEMAWDKLN,not soluble
11,MAHHHHHHMEEAKIEAALHICNLLPAHVFEETIKLLSKVDQNLTNNILINKEGPIKIKFDSQQNKHYLGNMFNKEKDSYRSPYSNRYYPEHYPNGYIPSESLRMLEMLYNEMYDRYRKAYYIGGLSSVYLWPNPIEEGFVACFLIKKKENYDPCTSLTWEGTHLIQVSITHARVYYQISTTVNFFIKKKNEMTLSASINKALETPKKVSNVNLVKDKYFHMHNMGKMIEGIENSLRKSIEYIYLPKMNDILNSIRMDDSFASAWHNADRKAAQNLRTISSNIALSRGSVQDELRLKLKGRSFDAGAEYSLRT,not soluble
12,MGSDKIHHHHHHMALIRINFMAASLHRTVPLMVCLPTDKLVPDEQGVPRPIQGPFATLYLLHGILGSEVDWISGTRIQRWADERNLAVVMPAGENSFYTDHPWSGETYSQFIGQELIDFTRRTFPLSHQRDQTFIGGLSMGGYGALYNGLKFHDIFGAIVSLSAGLNVRPGMEKLPAKPQWFAETAAYQHGVFGPDLAAAGHSELNPQVLVTKLLAAHVALPAIFMAIGDQDGLKPANDEFDHFLTAKKVSHEYVVGSGAHEWDFWDRYLLKALNWLPLTNQGAGVNSGHIKAN,not soluble
13,MSLEISFTRVALLAAALFFVGCDQKPQPAKTHATEVTVLEGKTMGTFWRASIPGIDAKRSAELKEKIQTQLDADDQLLSTYKKDSALMRFNDSQSLSPWPVSEAMADIVTTSLRIGAKTDGAMDITVGPLVNLWGFGPEQQPVQIPSQEQIDAMKAKTGLQHLTVINQSHQQYLQKDLPDLYVDLSTVGEGYAADHLARLMEQEGISRYLVSVGGALNSRGMNGEGLPWRVAIQKPTDKENAVQAVVDINGHGISTSGSYRNYYELDGKRLSHVIDPQTGRPIEHNLVSVTVIAPTALEADAWDTGLMVLGPEKAKEVVRREGLAVYMITKEGDSFKTWMSPQFKSFLVSEKEGGSHHHHHH,soluble
14,MGSDKIHHHHHHCTHKYKIEGTSSVNGLDGKMLYLKTLRDGEWTKLDSAEVVHGSFSMKGKIDSVQMTTLYMDDESVMPVVLESGKIVITISNTDLKAVGTPLNTALYDFIAKKNAMEESIGELERKETRMVMDGADLEEVHEQLLAEGDSLMKAMNQYVKTFISDNYENVLGPNVFIMLCSSLPYPIMTPQIDDIIKDAPYSFKSNKMVREFLTKAKENMQLIEEHQRMQQNVGSKK,not soluble

# From the DeepSol protein solubility set
